Experimental data as given in patent US20020037582A1 (published 2002).

T1: Gal4 DNA-BD-Grb14 fusion (full length Grb14, GRB14/pAS2.1)
T1 chain: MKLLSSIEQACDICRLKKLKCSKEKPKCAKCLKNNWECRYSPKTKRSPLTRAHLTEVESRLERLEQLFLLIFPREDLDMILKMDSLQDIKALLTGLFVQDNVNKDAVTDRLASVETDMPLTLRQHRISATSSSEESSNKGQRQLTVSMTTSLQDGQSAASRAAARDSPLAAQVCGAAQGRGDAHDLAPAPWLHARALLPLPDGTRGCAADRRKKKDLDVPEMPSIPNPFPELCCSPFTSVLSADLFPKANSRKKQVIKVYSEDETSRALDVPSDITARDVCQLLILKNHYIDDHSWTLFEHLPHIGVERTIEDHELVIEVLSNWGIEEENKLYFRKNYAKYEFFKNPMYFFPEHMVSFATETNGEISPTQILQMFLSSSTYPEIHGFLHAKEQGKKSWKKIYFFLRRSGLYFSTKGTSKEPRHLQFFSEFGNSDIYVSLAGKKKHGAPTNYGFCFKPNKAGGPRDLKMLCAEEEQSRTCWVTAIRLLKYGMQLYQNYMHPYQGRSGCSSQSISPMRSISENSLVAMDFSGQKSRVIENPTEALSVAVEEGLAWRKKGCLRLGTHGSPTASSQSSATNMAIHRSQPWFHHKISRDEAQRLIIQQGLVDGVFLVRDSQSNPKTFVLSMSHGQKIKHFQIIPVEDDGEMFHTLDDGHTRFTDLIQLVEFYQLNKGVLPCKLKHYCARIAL

B1: L-arginine:glycine amidinotransferase cDNA clone in pACT2 (protein)
chain: ASSRNSCAADDKATEPLPKDCPVSSYNEWDPLEEVIVGRAENACVPPFTIEVKANTYEKYWPFYQKQGGHYFPKDHLKKAVAEIEEMCNILKTEGVTVRRPDPIDWSLKYKTPDFESTGLYSAMPRDILIVVGNEIIEAPMAWRSRFFEYRAYRSIIKDYFHRGAKWTTAPKPTMADELYNQDYPIHSVEDRHKLAAQGKFVTTEFEPCFDAADFIRAGRDIFAQRSQVTNYLGIEWMRRHLAPDYRVHIISFKDPNPMHIDATFNIIGPGIVLSNPDRPCHQIDLFKKAGWTIITPPTPIIPDDHPLWMSSKWLSMNVLMLDEKRVMVDANEVPIQKMFEKLGITTIKVNIRNANSLGGGFHCWTCDVRRRGTLQSYLD
B2: Nedd4 partial cDNA clone in pACT2 (CaLB domain together with the first 22 amino acids of the first WW domain) (other, human, UniProt P46934-4 1-212, looked up, not shown: large carriers)
chain: MATCAVEVFGLLEDEENSRIVRVRVIAGIGLAKKDILGASDPYVRVTLYDPMNGVLTSVQTKTIKKSLNPKWNEEILFRVHPQQHRLLFEVFDENRLTRDDFLGQVDVPLYPLPTENPRLERPYTFKDFVLHPRSHKSRVKGYLRLKMTYLPKTSGSEDDNAEQAEELEPGWVVLDQPDAACHLQQQQEPSPLPPGWEERQDILGRTYYVNH
B3: Htk partial cDNA clone in pACT2 (intracellular region and part of the extracellular domain) (receptor, human, UniProt P54760 436-987, looked up, not shown: large carriers)
chain: AVSDIRVTRSSPSSLSLAWAVPRAPSGAVLDYEVKYHEKGAEGPSSVRFLKTSENRAELRGLKRGASYLVQVRARSEAGYGPFGQEHHSQTQLDESEGWREQLALIAGTAVVGVVLVLVVIVVAVLCLRKQSNGREAEYSDKHGQYLIGHGTKVYIDPFTYEDPNEAVREFAKEIDVSYVKIEEVIGAGEFGEVCRGRLKAPGKKESCVAIKTLKGGYTERQRREFLSEASIMGQFEHPNIIRLEGVVTNSMPVMILTEFMENGALDSFLRLNDGQFTVIQLVGMLRGIASGMRYLAEMSYVHRDLAARNILVNSNLVCKVSDFGLSRFLEENSSDPTYTSSLGGKIPIRWTAPEAIAFRKFTSASDAWSYGIVMWEVMSFGERPYWDMSNQDVINAIEQDYRLPPPPDCPTSLHQLMLDCWQKDRNARPRFPQVVSALDKMIRNPASLKIVARENGGASHPLLDQRQPHYSAFGSVGEWLRAIKMGRYEESFAAAGFGSFELVSQISAEDLLRIGVTLAGHQKKILASVQHMKSQAKPGTPGGTGGPAPQY
B4: original 2.2412 cDNA clone in pACT-2 (nucleotides 694-2664 of FIG. 1, polypeptide of 657 amino acids) (other, not shown: large carriers)
chain: ERLAYEFKGHSLLQAAREADVTRIKKHLSLEMVNFKHPQTHETALHCAAASPYPKRKQICELLLRKGANINEKTKEFLTPLHVASEKAHNDVVEVVVKHEAKVNALDNLGQTSLHRAAYCGHLQTCRLLLSYGCDPNIISLQGFTALQMGNENVQQLLQEGISLGNSEADRQLLEAAKAGDVETVKKLCTVQSVNCRDIEGRQSTPLHFAAGYNRVSVVEYLLQHGADVHAKDKGGLVPLHNACSYGHYEVAELLVKHGAVVNVADLWKFTPLHEAAAKGKYEICKLLLQHGADPTKKNRDGNTPLDLVKDGDTDIQDLLRGDAALLDAAKKGCLARVKKLSSPDNVNCRDTQGRHSTPLHLAAGYNNLEVAEYLLQHGADVNAQDKGGLIPLHNAASYGHVDVAALLIKYNASLNATDKWAFTPLHEAAQKGRTQLCALLLAHGADPTLKNQEGQTPLDLVSADDVSALLTAAMPPSALPSCYKPQVLNGVRSPGATADALSSGPSSPSSLSAASSLDNLSGSFSELSSVVSSSGTEGASSLEKKEVPGVDFSITQFVRNLGLEHLMDIFEREQITLDVLVEMGHKELKEIGINAYGHRHKLIKGVERLISGQQGLNPYLTLNTSGSGTILIDLSPDDKEFQSVEEEMQSTVREHR
B5: Gal4 DNA-BD fusion of the Grb14 N-terminus (amino acids 1-110) in pAS2.1 (other, UniProt P04386 1-147, looked up)
chain: MKLLSSIEQACDICRLKKLKCSKEKPKCAKCLKNNWECRYSPKTKRSPLTRAHLTEVESRLERLEQLFLLIFPREDLDMILKMDSLQDIKALLTGLFVQDNVNKDAVTDRLASVETDMPLTLRQHRISATSSSEESSNKGQRQLTVSMTTSLQDGQSAASRAAARDSPLAAQVCGAAQGRGDAHDLAPAPWLHARALLPLPDGTRGCAADRRKKKDLDVPEMPSIPNPFPELCCSPFTSVLSADLFPKANSRKKQVI
B6: Gal4 DNA-BD fusion of the Grb14 central region (amino acids 110-437) in pAS2.1 (other, UniProt P04386 1-147, looked up)
chain: MKLLSSIEQACDICRLKKLKCSKEKPKCAKCLKNNWECRYSPKTKRSPLTRAHLTEVESRLERLEQLFLLIFPREDLDMILKMDSLQDIKALLTGLFVQDNVNKDAVTDRLASVETDMPLTLRQHRISATSSSEESSNKGQRQLTVSIKVYSEDETSRALDVPSDITARDVCQLLILKNHYIDDHSWTLFEHLPHIGVERTIEDHELVIEVLSNWGIEEENKLYFRKNYAKYEFFKNPMYFFPEHMVSFATETNGEISPTQILQMFLSSSTYPEIHGFLHAKEQGKKSWKKIYFFLRRSGLYFSTKGTSKEPRHLQFFSEFGNSDIYVSLAGKKKHGAPTNYGFCFKPNKAGGPRDLKMLCAEEEQSRTCWVTAIRLLKYGMQLYQNYMHPYQGRSGCSSQSISPMRSISENSLVAMDFSGQKSRVIENPTEALSVAVEEGLAWRKKGCLRLGTHGSPTASSQSSATNMAIHRSQ

Legend:
[1] = target: Gal4 DNA-BD-Grb14 fusion (full length Grb14, GRB14/pAS2.1) (S. cerevisiae) (UniProt P04386); experiment: cell-based or functional assay
[2] = target: T1, Gal4 DNA-BD-Grb14 fusion (full length …)
[3] = target: Gal4 DNA-BD-Grb14 fusion (full length Grb14, GRB14/pAS2.1) (S. cerevisiae, UniProt P04386 1-147; Q14449 1-540); experiment: cell-based or functional assay
[4] = target: B4; experiment: yeast two hybrid in strain Y190, liquid- or filter-based beta-galactosidase assays
Excerpt: (§1) These fragments spanned the following regions: N-terminus (“N”. amino acids 1-110), the central region (“C”) encompassing the mig10 homology and the “between PH and SH2” (BPS) domain (amino acids 110-437) and the N-terminal and central regions (“N+C”, amino acids 1-437). These plasmids were individually transformed into the yeast strain Y190 (MATα, ura3-52, his3-200, ade2-101, lys2-801, trp1-901, leu2-3, 112, gal4Δ, gal80Δ, cyh^r2, LYS2::GAL1UAS-HIS3TATA-HIS3, URA3::GAL1UAS-GAL1TATA-lacZ) and expression of the appropriately sized Gal4 DNA-BD fusion proteins confirmed by Western blotting.

[5] = target: B4; experiment: yeast two hybrid, liquid- or filter-based beta-galactosidase assays
Excerpt: as §1

Somatostatin receptor cDNA clone in pACT2
Mean RLU (Liquid assay), beta-galactosidase activity [1]: 1450 RLU

Proteosome cDNA clone in pACT2 (from UniProt P04386 768-881)
Mean RLU (Liquid assay), beta-galactosidase activity [1]: 388 RLU

B1
Colour intensity (Filter assay), beta-galactosidase [2]: +/- | Mean RLU (Liquid assay), beta-galactosidase activity [2]: 861 RLU

B2
Mean RLU (Liquid assay), beta-galactosidase activity [3]: 2.86e+06 RLU

B3
Mean RLU (Liquid assay), beta-galactosidase activity [3]: 186000 RLU

B4
Mean RLU (Liquid assay), beta-galactosidase activity [3]: 5.18e+06 RLU

B5
binding result [4]: binds

B6
binding result [5]: no binding
